Values quoted from earlier work in paper PMC8349851.

Biological target: PI3K p85 regulatory subunit SH3 (Homo sapiens) (UniProt P27986)
Chain of UniProt P27986 (P27986 1-82): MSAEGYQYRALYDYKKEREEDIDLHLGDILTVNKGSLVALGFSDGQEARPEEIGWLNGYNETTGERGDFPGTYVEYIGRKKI

## obscurin PH (from UniProt Q5VST9)
  Kd: 0.05 µM
